Assay results reported in US20220089647A1 (FUJIFILM, published 2022).
Starred links: 1 amine or outer side, 2 acyl side, 3 side chain; linkers in the order of their positions; H or OH if unused. Positions of bridges follow the written chain, without caps; N, C: chain ends. Non-standard residues stand in square brackets, D forms with d. Primed or numbered codes have the meaning given here. No end group written: not given here. Dab(acetyl)″ = 2-amino-4-(acetylamino)butanoic acid, acetyl CH3 carbon bonded to the S of Hcy (S-CH2-C(=O)-NH-), O=C(C[*:3])NCC[C@H](N[*:1])C(=O)[*:2]; Dab(acetyl) = 2-amino-4-acetylamino-butanoic acid residue (N-γ-acetyl-diaminobutyric acid), CC(=O)NCC[C@H](N[*:1])C(=O)[*:2]; Dab(acetyl)(3) = 2-amino-4-(acetylamino)butanoic acid (Dab with N-γ-acetyl), CC(=O)NCC[C@H](N[*:1])C(=O)[*:2]; COCH2 = acetyl group that carries the bridge; hCys = N[C@@H](CCS)C(=O)O; Dab = NCC[C@H](N)C(=O)O

B1: Cyclic peptide 74 (peptide)
peptide: KKKAXVPRGDTFRXA
modifications: not fully specified; KKKA-(Hcy)-VPRGDTFR(Dab(acetyl))A; thioether bond Hcy-Dab(acetyl)
B2: Cyclic peptide 70 (peptide)
peptide: KKKGXVPRGDTFRXA
modifications: not fully specified; KKKG-(Hcy)-VPRGDTFR(Dab(acetyl))A; thioether bond Hcy-Dab(acetyl)
B3: Cyclic peptide 78 (peptide)
peptide: KKKAXIPRGDVFRXA
modifications: not fully specified; KKKA-(Hcy)-IPRGDVFR(Dab(acetyl))A; thioether bond Hcy-Dab(acetyl)
B4: Cyclic peptide 77 (peptide)
peptide: KKKAXISRGDTFRXA
modifications: not fully specified; KKKA-(Hcy)-ISRGDTFR(Dab(acetyl))A; thioether bond Hcy-Dab(acetyl)
B5: Cyclic peptide 69 (peptide)
peptide: KKKGXEPRGDTFRXA
modifications: not fully specified; KKKG-(Hcy)-EPRGDTFR(Dab(acetyl))A; thioether bond Hcy-Dab(acetyl)
B6: Cyclic peptide 85 (peptide)
peptide: KKKAXIPRGDTFAXG
modifications: not fully specified; KKKA-(Hcy)-IPRGDTFA(Dab(acetyl))G; thioether bond Hcy-Dab(acetyl)
B7: Cyclic peptide 83 (peptide)
peptide: KKKAXIPRGDTFSXA
modifications: not fully specified; KKKA-(Hcy)-IPRGDTFS(Dab(acetyl))A; thioether bond Hcy-Dab(acetyl)
B8: Cyclic peptide 75 (peptide)
peptide: KKKAXTPRGDTFRXA
modifications: not fully specified; KKKA-(Hcy)-TPRGDTFR(Dab(acetyl))A; thioether bond Hcy-Dab(acetyl)
B9: Cyclic peptide 84 (peptide)
peptide: KKKGXIPRGDTFAXG
modifications: not fully specified; KKKG-(Hcy)-IPRGDTFA(Dab(acetyl))G; thioether bond Hcy-Dab(acetyl)
B10: Cyclic peptide 71 (peptide)
peptide: KKKGXLPRGDTFRXA
modifications: not fully specified; KKKG-(Hcy)-LPRGDTFR(Dab(acetyl))A; thioether bond Hcy-Dab(acetyl)

Target: T1, human integrin αvβ5 (human, UniProt P06756 31-992; P18084 24-719, limits assumed)
T1 construct: Heterodimer flowed as analyte at 30, 100, 300 and 1,000 nM in HEPES buffer with 5 mM MgCl2
Experiment: SPR, Biacore 3000, peptide immobilised; A = KD 50 nM or less
Procedure: However, only for the cyclic peptides 125, 126, and 127, in which the number of lysine residues having an amino group as the immobilizing functional group was zero, the amount of the sample solution to be supplied to the sensor chip was set to 500 μL instead of 20 μL. Further, 70 μL of the mixed aqueous solution of 0.2 M EDC and 0.04 M NHS was added to another flow channel of the same sensor chip without immobilizing the sample, and then blocking treatment and washing treatment were carried out. Hereinafter, the obtained immobilization-treated sensor chip is referred to as an “immobilization-treated sensor chip A”.
After adding human integrin αvβ5 for 10 minutes at 25° C., which was diluted to 30 nM using a HEPES buffer solution to which magnesium chloride was added to 5 mM, in each flow channel of the immobilization-treated sensor chip A prepared in (1) above, the same HEPES buffer solution (containing 5 mM magnesium chloride) was allowed to flow as a running buffer for 30 minutes, and measurement was carried out with Biacore 3000. Then, a regeneration treatment of removing human integrin αvβ5 was carried out by allowing a 0.5 M EDTA aqueous solution to flow through each flow channel for 10 minutes. Further, the above-described measurement process consisting of adding integrin for 10 minutes, allowing a running buffer to flow for 30 minutes, carrying out measurement with Biacore 3000, and carrying out regeneration treatment with 0.5 M EDTA aqueous solution was carried out in the same manner for 100 nM human integrin αvβ5, 300 nM human integrin αvβ5, and 1,000 nM human integrin αvβ5. Dissociation constant between the cyclic peptide and human integrin αvβ5 was calculated from the difference between the value measured by Biacore 3000 in the flow channel immobilized with the cyclic peptide and the value measured by Biacore 3000 in the flow channel unimmobilized with the cyclic peptide, in a case where each concentration of human integrin αvβ5 was allowed to flow, and the integrin binding property was evaluated according to the following evaluation standards. It is preferable that the evaluation result satisfies the evaluation standard A, B, or C.

T1 sequence (P06756 31-992 limits assumed, chain 1 of 2): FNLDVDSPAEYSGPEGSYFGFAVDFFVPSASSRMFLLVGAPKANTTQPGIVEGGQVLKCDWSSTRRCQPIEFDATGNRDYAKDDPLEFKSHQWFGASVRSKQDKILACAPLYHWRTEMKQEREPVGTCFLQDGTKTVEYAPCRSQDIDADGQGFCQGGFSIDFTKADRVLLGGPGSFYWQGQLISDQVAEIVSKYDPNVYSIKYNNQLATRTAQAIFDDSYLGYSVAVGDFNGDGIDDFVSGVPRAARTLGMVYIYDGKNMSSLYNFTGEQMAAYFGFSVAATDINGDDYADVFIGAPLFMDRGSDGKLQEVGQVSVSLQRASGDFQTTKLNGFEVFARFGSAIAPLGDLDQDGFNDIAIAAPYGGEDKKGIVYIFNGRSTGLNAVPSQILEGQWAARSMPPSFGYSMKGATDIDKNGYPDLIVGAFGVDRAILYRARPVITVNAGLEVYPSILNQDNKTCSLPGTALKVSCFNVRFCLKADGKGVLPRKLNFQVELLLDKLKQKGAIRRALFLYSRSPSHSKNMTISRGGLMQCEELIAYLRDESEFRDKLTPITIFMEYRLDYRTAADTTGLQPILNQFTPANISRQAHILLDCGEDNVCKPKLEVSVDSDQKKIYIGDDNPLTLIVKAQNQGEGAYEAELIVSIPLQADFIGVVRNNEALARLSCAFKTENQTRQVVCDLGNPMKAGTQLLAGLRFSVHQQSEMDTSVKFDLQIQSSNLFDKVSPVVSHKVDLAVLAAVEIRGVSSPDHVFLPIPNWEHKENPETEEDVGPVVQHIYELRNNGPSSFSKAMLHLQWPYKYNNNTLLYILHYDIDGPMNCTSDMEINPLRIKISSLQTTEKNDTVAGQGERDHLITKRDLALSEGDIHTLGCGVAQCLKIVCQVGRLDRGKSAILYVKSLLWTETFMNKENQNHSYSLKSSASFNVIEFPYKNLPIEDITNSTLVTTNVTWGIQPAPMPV
T1 sequence (P18084 24-719 limits assumed, chain 2 of 2): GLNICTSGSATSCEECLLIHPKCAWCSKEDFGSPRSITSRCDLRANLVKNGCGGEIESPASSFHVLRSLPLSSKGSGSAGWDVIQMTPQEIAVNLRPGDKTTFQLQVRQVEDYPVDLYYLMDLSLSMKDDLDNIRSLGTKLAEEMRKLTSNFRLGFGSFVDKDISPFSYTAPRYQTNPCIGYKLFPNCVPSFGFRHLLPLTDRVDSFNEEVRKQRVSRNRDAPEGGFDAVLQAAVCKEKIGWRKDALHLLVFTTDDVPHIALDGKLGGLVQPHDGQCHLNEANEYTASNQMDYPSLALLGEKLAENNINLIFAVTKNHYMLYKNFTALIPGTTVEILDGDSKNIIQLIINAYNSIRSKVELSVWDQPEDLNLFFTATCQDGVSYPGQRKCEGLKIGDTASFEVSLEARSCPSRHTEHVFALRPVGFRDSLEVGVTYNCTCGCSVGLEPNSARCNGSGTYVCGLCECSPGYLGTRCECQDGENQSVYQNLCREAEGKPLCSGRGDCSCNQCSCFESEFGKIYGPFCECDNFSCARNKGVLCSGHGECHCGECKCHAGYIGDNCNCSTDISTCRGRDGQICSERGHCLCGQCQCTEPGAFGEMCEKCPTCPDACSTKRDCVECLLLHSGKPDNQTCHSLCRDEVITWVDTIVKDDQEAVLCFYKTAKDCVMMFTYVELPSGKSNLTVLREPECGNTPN

dissociation constant (KD) [nM] | dissociation constant [nM] | Binder
≤ 50 | – | KKKG[hCys]IPRGDTFR[Dab(acetyl)″]A (thioether 5-14) [Cyclic peptide 54]
– | ≤ 50 | B1
– | ≤ 50 | KKKA[hCys]IPRGDAFA[Dab(acetyl)]A (thioether 5-14) [Cyclic peptide 90]
– | ≤ 50 | B2
– | ≤ 50 | KKKA[hCys]IPRGDTFG[Dab(acetyl)]A (thioether 5-14) [Cyclic peptide 88]
– | ≤ 50 | B3
– | ≤ 50 | B4
– | ≤ 50 | B5
– | ≤ 50 | KKKA[hCys]IPRGDTFA[Dab(acetyl)]A (thioether 5-14) [Cyclic peptide 87]
– | ≤ 50 | KKKA[hCys]VPRGDAFA[Dab(acetyl)]A (thioether 5-14) [Cyclic peptide 91]
– | ≤ 50 | B6
– | ≤ 50 | B7
– | ≤ 50 | KKKG[hCys]IPRGDTFA[Dab(acetyl)]A (thioether 5-14) [Cyclic peptide 86]
– | ≤ 50 | KKKA[hCys]IPRGDSFA[Dab(acetyl)]A (thioether 5-14) [Cyclic peptide 92]
– | ≤ 50 | B8
– | ≤ 50 | B9
– | ≤ 50 | KKKA[hCys]VTRGDTFR[Dab(acetyl)]A (thioether 5-14) [Cyclic peptide 89]
– | ≤ 50 | B10
≤ 50 | – | KKKG[hCys]IPRGDTFR[Dab(acetyl)″]G (thioether 5-14) [Cyclic peptide 55]
≤ 50 | – | KKKA[hCys]IPRGDTFR[Dab(acetyl)″]A (thioether 5-14) [Cyclic peptide 56]
≤ 50 | – | KKKG[hCys]LPRGDNFR[Dab](COCH2)A (thioether 5-14) [Cyclic peptide 27]
≤ 50 | – | KKKG[hCys]IPRGDNFR[Dab(acetyl)(3)]A (thioether 5-14) [Cyclic peptide 1]
≤ 50 | – | KKKA[hCys]IPRGDNFR[Dab](COCH2)A (thioether 5-14) [Cyclic peptide 2]
